B1: Heterogeneous nuclear ribonucleoprotein A1 (Homo sapiens), P09651-2 (parent)
chain: MSKSESPKEPEQLRKLFIGGLSFETTDESLRSHFEQWGTLTDCVVMRDPNTKRSRGFGFVTYATVEEVDAAMNARPHKVDGRVVEPKRAVSREDSQRPGAHLTVKKIFVGGIKEDTEEHHLRDYFEQYGKIEVIEIMTDRGSGKKRGFAFVTFDDHDSVDKIVIQKYHTVNGHNCEVRKALSKQEMASASSSQRGRSGSGNFGGGRGGGFGGNDNFGRGGNFSGRGGFGGSRGGGGYGGSGDGYNGFGNDGSNFGGGGSYNDFGNYNNQSSNFGPMKGGNFGGRSSGPYGGGGQYFAKPRNQGGYGGSSSSSSYGSGRRF
partner: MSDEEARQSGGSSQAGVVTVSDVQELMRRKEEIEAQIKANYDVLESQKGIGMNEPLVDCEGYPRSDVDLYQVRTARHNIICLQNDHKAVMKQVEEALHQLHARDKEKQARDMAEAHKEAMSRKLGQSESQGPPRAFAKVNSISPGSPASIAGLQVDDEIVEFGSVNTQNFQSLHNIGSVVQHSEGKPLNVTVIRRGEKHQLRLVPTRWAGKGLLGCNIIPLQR
B2: Chorionic somatomammotropin hormone 1 (Homo sapiens), P0DML2 (parent)
chain: MAPGSRTSLLLAFALLCLPWLQEAGAVQTVPLSRLFDHAMLQAHRAHQLAIDTYQEFEETYIPKDQKYSFLHDSQTSFCFSDSIPTPSNMEETQQKSNLELLRISLLLIESWLEPVRFLRSMFANNLVYDTSDSDDYHLLKDLEEGIQTLMGRLEDGSRRTGQILKQTYSKFDTNSHNHDALLKNYGLLYCFRKDMDKVETFLRMVQCRSVEGSCGF
partner: B1 partner
B3: Transcription factor E2-alpha (Homo sapiens), P15923-1 (parent)
chain: MNQPQRMAPVGTDKELSDLLDFSMMFPLPVTNGKGRPASLAGAQFGGSGLEDRPSSGSWGSGDQSSSSFDPSRTFSEGTHFTESHSSLSSSTFLGPGLGGKSGERGAYASFGRDAGVGGLTQAGFLSGELALNSPGPLSPSGMKGTSQYYPSYSGSSRRRAADGSLDTQPKKVRKVPPGLPSSVYPPSSGEDYGRDATAYPSAKTPSSTYPAPFYVADGSLHPSAELWSPPGQAGFGPMLGGGSSPLPLPPGSGPVGSSGSSSTFGGLHQHERMGYQLHGAEVNGGLPSASSFSSAPGATYGGVSSHTPPVSGADSLLGSRGTTAGSSGDALGKALASIYSPDHSSNNFSSSPSTPVGSPQGLAGTSQWPRAGAPGALSPSYDGGLHGLQSKIEDHLDEAIHVLRSHAVGTAGDMHTLLPGHGALASGFTGPMSLGGRHAGLVGGSHPEDGLAGSTSLMHNHAALPSQPGTLPDLSRPPDSYSGLGRAGATAAASEIKREEKEDEENTSAADHSEEEKKELKAPRARTSPDEDEDDLLPPEQKAEREKERRVANNARERLRVRDINEAFKELGRMCQLHLNSEKPQTKLLILHQAVSVILNLEQQVRERNLNPKAACLKRREEEKVSGVVGDPQMVLSAPHPGLSEAHNPAGHM
partner: B1 partner
B4: 26S proteasome non-ATPase regulatory subunit 9 (Homo sapiens), O00233 (parent)
chain: B1 partner

Variants of: B1
Conditions: with psmd9_human PSMD9, O00233

effect of a mutation on the interaction | Variant
disrupting interaction strength | F320G

Variants of: B1
Conditions: with psmd9_human PSMD9, O00233
Remark: another data set of the same source

effect of a mutation on the interaction | Variant
decreasing interaction strength | F320G

Variants of: B1
Conditions: with psmd9_human PSMD9, O00233
Remark: another data set of the same source

effect of a mutation on the interaction | Variant
with no effect | F320G

Variants of: B2
Conditions: with psmd9_human PSMD9, O00233

effect of a mutation on the interaction | Variant
with no effect | F217G

Variants of: B3
Conditions: with psmd9_human PSMD9, O00233

effect of a mutation on the interaction | Variant
decreasing interaction strength | M654G

Variants of: B4
Conditions: with csh1_human CSH1, P0DML2

effect of a mutation on the interaction | Variant
decreasing interaction strength | F162G
decreasing interaction strength | L153G

Variants of: B4
Conditions: with HNRNPA1, P09651-2

effect of a mutation on the interaction | Variant
decreasing interaction strength | F162G
decreasing interaction strength | L153G

Variants of: B4
Conditions: with HNRNPA1, P09651-2
Remark: another data set of the same source

effect of a mutation on the interaction | Variant
disrupting interaction strength | F162G
disrupting interaction strength | L124G;Q126G;E128G
with no effect | L173G
disrupting interaction strength | L153G
disrupting interaction strength | Q181G

Variants of: B4
Conditions: with csh1_human CSH1, P0DML2
Remark: another data set of the same source

effect of a mutation on the interaction | Variant
disrupting interaction strength | F162G
disrupting interaction strength | L124G;Q126G;E128G
with no effect | L173G
disrupting interaction strength | L153G
decreasing interaction strength | Q181G

Variants of: B4
Conditions: with rs14_human RPS14, P62263

effect of a mutation on the interaction | Variant
decreasing interaction strength | F162G
disrupting interaction strength | L124G;Q126G;E128G
with no effect | L173G
disrupting interaction strength | L153G
disrupting interaction strength | Q181G

Variants of: B4
Conditions: with IL6R

effect of a mutation on the interaction | Variant
disrupting interaction strength | F162G
disrupting interaction strength | L124G;Q126G;E128G
with no effect | L173G
disrupting interaction strength | L153G
disrupting interaction strength | Q181G

Variants of: B4
Conditions: with HNRNPA1, P09651-2
Remark: another data set of the same source

effect of a mutation on the interaction | Variant
decreasing interaction strength | L124G;Q126G;E128G
decreasing interaction strength | Q181G

Reference: IntAct's records for PubMed 25009770
